Measurements as given in the DeepSol protein solubility set.

Test: soluble on expression in E. coli; label from the status in PepcDB or PDB records

| Sequence | soluble on expression in E. coli |
| --- | --- |
| MGSSHHHHHHSSGLVPRGSHMKWDYDLRCGEYTLNLNEKTLIMGILNVTPDSFSDGGSYNEVDAAVRHAKEMRDEGAHIIDIGGESTRPGFAKVSVEEEIKRVVPMIQAVSKEVKLPISIDTYKAEVAKQAIEAGAHIINDIWGAKAEPKIAEVAAHYDVPIILMHNRDNMNYRNLMADMIADLYDSIKIAKDAGVRDENIILDPGIGFAKTPEQNLEAMRNLEQLNVLGYPVLLGTSRKSFIGHVLDLPVEERLEGTGATVCLGIEKGCEFVRVHDVKEMSRMAKMMDAMIGKGVK | soluble |
| MAQSTQEAEGEQQRRQAVLRERYLSFLQKSADKPATIEMCERTTVTATIKAFQPSSEHVIVGTVAVA | not soluble |
| MLKSILRGALVATKPGPARRQFSFTALLRSETQPKEIINLERVQVRKMKKRRPVASSVVPKSLREPSVVAMALSESLNLNEVIMDAQLNGMYNITAIDEDADDSLHFVKKLEYTINPGELSEIFVFRDGVVVFWNVDSSQRSHILRELERYADAPYDSMIVMDEQDRMFYKFSEQSTGSTIRQDRFYLSGKHLDAFHGSNEAILERFALSQGFAASVKIGVWESLLNNLAEPLSNTTKSLTLGKIPWSRKQALMRSGEFAALRHSINLDCTLLNKDFYWERPELEKYYTMTGRHFSLDRRIGLLNKRLDYCEELVKMVDNTIALRHASHLEWMIIVLIVIEVIFDVFHFADKTPKSVMIVPDSSKAQQLRNEGN | not soluble |
| MSEKDFVQVAKLGKTVGLKGYVKLHNLSDFSSQFKKDATFFIKNTKEMLKIKHYNANNSTVLFENYEDIEKAKELTNLILFQSIEKSRQTCKLKKDEFFYFDILECEVFEEDKRLGKVVDILETGASYLFEIQSDEKWVEKKYPKIFFIPYLDKFVKNIDIEKRQIFCTQDAFLILENSLEHHHHHH | soluble |
| MAHHHHHHMNKEHILFDSFPLTFLSDEVDCSNFEDEQERTYRERIAQMTEELKSLRMEITEKHSIRSMLEEKVAMLQNEEQTKQNNLKYVLNFCDKQMYERELGNFHNHLEQLRKQIQNSNCKIKLLIEKEFKVRKQLQLRYMKLYDLLNERVRYILGDYVKHRKCACAIFAYRQEGQR | not soluble |
| MQPQSVLHSGYLHPLLRAWQTATTTLNASNLIYPIFVTDVPDDIQPITSLPGVARYGVKRLEEMLRPLVEEGLRCVLIFGVPSRVPKDERGSAADSEESPAIEAIHLLRKTFPNLLVACDVCLCPYTSHGHCGLLSENGAFRAEESRQRLAEVALAYAKAGCQVVAPSDMMDGRVEAIKEALMAHGLGNRVSVMSYSAKFASCFYGPFRDAAKSSPAFGDRRCYQLPPGARGLALRAVDRDVREGADMLMVKPGMPYLDIVREVKDKHPDLPLAVYHVSGEFAMLWHGAQAGAFDLKAAVLEAMTAFRRAGADIIITYYTPQLLQWLKEE | soluble |
| SIYQVAIKSLPQDWLWCETWCDDESKQRAKTIDLCNNPKTKEPKLEAAARIVPEWVTYDTEIRTLLDHLENKKKSANSVHDEL | soluble |
| MTELARLKFYATQPHSCSYLPEEQATTLFLDPSQPMDVHVYADLSEMGFRRSGDHLYRPHCQNCNACVPARIPAARFIPNRQQRRILKRNADLTVTAARPAFKEEYFELYRRYIETRHADGDMYPPSRDQFSTFLVRDLPFCWFYEFRLEGRLMAVAVCDLLPNGLSAVYTFYEPDEERRSLGRFAILWQITEALRQNLEAVYLGYWIKNCKKMNYKTQYRPIELLINQRWVTLNLEHHHHHH | not soluble |
| MGSDKIHHHHHHMQLNPSLIPHSSEQHVDWEKALHGGNDALLTQLAADDDPAAALLELESYINGIYRGSPSPLSKPLPDIRLEVRRALPYVDEIRDRLGWQVRDFDLGLLRLIRGSSTLSPVLGAGVSMDAGAPSWPELVRLMLEETLDKGLEFYESVPAADNPAQPPIEFLPDGTVRTGGTGTWRFEQRVSEVKRYTAEQEQTARNVLAEVKAKGSSTDVETLMHGAQVCYDLCGQHLFRLLTKIIYTRAKEPSEVHRVIAELAQAQEVPVRGPGLFPGWDSIITYNIDALMSEALAEQKIPHAAWAMKGDKLRGNPDELAQKSSWHEPIFHLHGFSPRRLFMITNVRFVFSTSQYLTTYKGPRSRILEAVYDEFLANPVRIALYIGCSFADEAMNGLLREAFAEYPGRYHYALLKWPRDRKGKEPDRSEIAAESAKYLEFGVRPIWFDDFAELPGLIRQLQ | not soluble |
| MKFIVKLQAEITIKSRPVRKRFTKILESSVKNVLRRIDEQVTTRMNWDNIEVNTKDNSPENRERLVEALKCIPGIPMFLEVQQSEFVDVHDIYEKTLAVHAESIENKTFCVRAKRTGNHDFNSLKVEQYVGGGLNQQVESAKVKLKNPDVTIHLEIKNKDLFIVTQRHKGLGGFPIATQEDVLSLMSGGFDSGVSSYQMIKKGARTHYCFFNLGGSAHEVGVKQISYYLWNKFGASHKVKFFAVDFEPVVAEILENVENSQMGVVLKRMMIRAATKIAERGKIQALVTGESLGQVSSQTLTNLNVINRVTDTLILRPLAAYDKQDIIDIARKIGTEEFSKTIPEYCGVISKKPTVKAVLSKVEEEEGNFDFDVLDKVVSETRVYDIRDIGKEAEEEIHAVDLVENIPENAVVVDIRSPEEEEDKPLELGDVEVKHIPFYKLSTQFGDLDMTKEYLLYCDHGVMSKLQALYLLDNGFKNVKVYRP | not soluble |
| VTEEEIHAMLEEGSVAGIIEQQEHEMVRNVFRLDDRQLGSLMVPRADIIYLDTALPLEENMKRVVESEHSRFPVCHNGLQSLLGVVNAKQLLAQTIKGGVTNLAEHLQPCVYVPETLTGMELLDHFRTSGTQMVFVVDEYGEIQGLVTLQDMLEAVTGEFA | not soluble |
| MSFFTKEQQPKENCPPITVEKARQLFEFNTNHLSLSDYHHQTVLKTSKQLVAQHLMPNATDNLSQHFLMNYKANNNYLGFQASIVDFFTDSAVANFSSSYVYESQEKIIRLPKPTKISTALSTCIIKRRSHRQFSDRQMPLQDLSNILYYACGVSSQASIRDGASDKITLRNCASGGGLYPIHLVFYARNISKLIDGFYEYLPYQHALRCYRHSSEENVRDFAEYGAINAENCNIIIIYVYHYMKNTRKYGNQATAYAFIESGEIAQNIQLTATALTYGSIDIGGYNKEYLQELLDLDGLGEHVIHMTLVGTKESQ | not soluble |
| MSPSPLISHRAASADLAGMVRQARQRILLQGNVPGFDVARQIELLHGLAESELGRFLLLYRGLNAEWTHRLVTHQPGSGALAPLERVFYERLPAVLATRERHGHFRRALQRHLRPGCVVASVPCGWMSELLALDYSACPGVQLVGIDYDPEALDGATRLAAGHALAGQITLHRQDAWKLDTREGYDLLTSNGLNIYEPDDARVTELYRRFWQALKPGGALVTSFLTPPPALSPDSPWDMQAIDPHDLQLQQLVFTRLIQPRWNALRTHAQTRAQLEEAGFTDLRFEDDRARLFPTVIARKPA | soluble |
| MGSDKIHHHHHHADDDKPIQVSQMPQKAQQFIKQHFAGSNIAMAKVESDFLQKSYDVIFTDGNKVEFDKKGNWTEVNCKFSVVPQGIIPSPIQKYTATNYPDAKVLKIERDKTDYEVKLSNGWELKFDSKFNLIDIDN | not soluble |
| MAHHHHHHMRVRSLLLCIRRDPLQRAVDVAYASGMLLGSGSSRGTTHFSETTAFTSSNFAADLRGGRVGLAGDGGTKCDDRNGELVRGRIQFASRCAEGPFVGASPTVTSCAHIEGVVRQVECGYVGGDRVLQFIIEVEEVPASGGTPMRLPLAVRWRPGSEVAQNRMDEWQKEMERLVGRRVLASGRLQVEECFDSGSRRLYKTPSLVLPATSTVEMISLQELEC | not soluble |
| GPGSMTTAASEGIVSREQLQMMLHVILHSTDNNERRNVEKSVVQLLTTPSTLTLLMVMLRDVQGSSPGVRQLAAVLLRKKVLSLWRTIPSESRGDFKGALLEQLGCEPVKAVRLALAHLVTRVAKADAMDEDGGWPELNYAIRAAVIDPRAEMRELAMVLAYSVAEVMSEADTHCLPVVEAVLQGMLDSEDAVQRSAVKAVGTLFVFMRGQTKVWEQLLQQLVPQCLALLTKCGTEETKTNLCVDVLDLLEQLVEDLSVKKHGALLRSVALEVLSVMTNGAIQPRVRQSCAEVLASLVNQKPKFVSTTVLEPLVSACVQVMSEDNAISLPEVAHTEGMENCDDSQSDENDAADMLHVDPPCLFAGRLLSTIATKVAAKSFTGALLPLISPVAQSPQAVGPTGAKSFDPRSCLFGRG | not soluble |
